Data on 2 substances can be found in patent publication US8691189B2, “Method of colorectal cancer detection by using radiolabeled anti-GRP78 peptide” (Institute of Nuclear Energy Research, Atomic Energy Council, priority 2011, dated 2014).

The target of this test is T1, GRP78 (Mus musculus, UniProt P20029).
T1 construct: endogenous in cells; CT26 named for the mouse model
The experiment in a line: Immunofluorescence cell staining of colorectal cancer cells. Type of test: cell-based. The settings on record: FITC-labeled, 1:50, 4° C. overnight, FIG. 3. How it is done:
(A) Immunofluorescence cell staining 4: • (A1) Cell culturing 40: • I. A few colorectal cancer cells are cultured in a RPMI1640 of 10% fetal bovine serum (FBS) (containing 2 mM glutamine, penicillin (100 U/ml) and streptomycin ([…])). • II. The cells are put in a culture chamber having 5% CO2 at 37° C. • III. After being fully grown, the cells adhered on culture dishes are reacted with 0.05% Trypsin and are washed down. • IV. The cells washed down are further washed with a Hank's balanced salts solution. • V. The washed cells are obtained at a number about 1×10^4 to be put into a chamber slide having eight individual sections for further culturing. • VI. […] The sliced tissues are washed with a normal saline solution for 3 times each time for 5 minutes. • (A4) Fluorescence microscopy observation 43: • I. The sliced tissues are fully dried for observation with a microscope. • II. […] A fluorescence image is captured with a digital camera device. • IV. An image of the cells is captured under a visible light as a reference to the fluorescence image.
(A) Fluorescence immunoassay 7: • (A1) Fluorescence immunoassay of colorectal cancer 71: • As modern studies show, colorectal cancer cells and tissues show a lot of GRP78. […] As a result, the anti-GRP78 peptide is able to detect expression of GRP78 in colorectal cancer cell. • (A2) Fluorescence immunoassay of colorectal cancer tissue 72: […]

Where no end group is shown, it is not given here.

T1 sequence (P20029 20-655): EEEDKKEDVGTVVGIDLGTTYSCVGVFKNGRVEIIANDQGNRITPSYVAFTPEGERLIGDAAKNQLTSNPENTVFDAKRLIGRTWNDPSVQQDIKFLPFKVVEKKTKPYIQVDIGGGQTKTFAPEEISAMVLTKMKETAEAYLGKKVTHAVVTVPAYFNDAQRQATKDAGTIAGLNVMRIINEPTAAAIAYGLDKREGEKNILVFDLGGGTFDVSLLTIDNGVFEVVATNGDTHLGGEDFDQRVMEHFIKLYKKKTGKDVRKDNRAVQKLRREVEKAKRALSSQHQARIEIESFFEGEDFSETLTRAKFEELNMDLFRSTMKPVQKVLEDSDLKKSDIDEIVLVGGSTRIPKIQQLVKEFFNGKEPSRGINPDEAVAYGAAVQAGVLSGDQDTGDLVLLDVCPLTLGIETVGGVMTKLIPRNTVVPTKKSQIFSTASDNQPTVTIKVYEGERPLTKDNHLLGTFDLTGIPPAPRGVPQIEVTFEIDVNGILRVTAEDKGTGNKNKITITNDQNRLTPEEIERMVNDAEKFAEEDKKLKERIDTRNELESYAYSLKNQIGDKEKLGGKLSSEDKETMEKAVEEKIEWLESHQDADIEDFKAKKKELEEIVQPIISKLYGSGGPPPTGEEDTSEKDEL

In the case of YIFPYIELC [anti-GRP78 peptide], the “fluorescence expression (detection of GRP78 expression in colorectal cancer cell)” value is listed as “obvious fluorescence expression”.

On to fluorescein isothiocyanate [pure FITC], for which the “fluorescence expression (detection of GRP78 expression in colorectal cancer cell)” value is on record as “no fluorescence expression”.
